Results taken from US20190127480A1 (Regeneron, published 2019).
Residue numbers refer to the chain shown, from its start.

B1: H1H7204P (monovalent 1-arm) (antibody, human IgG1, V domains shown)
VH: EVQLVESRGALVQPGRSLRLSCAASGFAFNDYTMHWVRQAPGKGLEWVSDISWNSNSKDYADSVKGRFTISRDNAKNSLYLQMNSLRAEDTALYYCVKDGSGYGKFSLYALDVWGQGTTVTVSS
VL: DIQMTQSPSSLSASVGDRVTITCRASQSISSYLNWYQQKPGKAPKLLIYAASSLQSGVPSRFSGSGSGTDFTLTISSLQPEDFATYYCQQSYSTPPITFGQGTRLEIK
notes: Monovalent 1-arm: second Fab removed, only the Fc portion (CH2-CH3) expressed; human IgG1 Fc; tied by numerical identifier; also called H1H7204B
B2: H1H7269P (monovalent 1-arm) (antibody, human IgG1, V domains shown)
VH: QVQLVESGGGLVQPGRSLRLSCAASGFKFDDYTMHWVRQGPGKGLEWVSDISWSGGSIDYTDSVKGRFSISRDNAKNSLYLQMNSLRVEDTALYYCVKDKSGYGKYSYGLDVWGQGTTVTVSS
VL: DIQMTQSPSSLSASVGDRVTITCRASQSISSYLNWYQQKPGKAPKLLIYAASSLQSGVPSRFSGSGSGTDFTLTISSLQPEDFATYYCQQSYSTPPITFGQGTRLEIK
notes: Monovalent 1-arm: second Fab removed, only the Fc portion (CH2-CH3) expressed; human IgG1 Fc; tied by numerical identifier; also called H1H7269B
B3: H1H7242P (monovalent 1-arm) (antibody, human IgG1, V domains shown)
VH: EVQLVESGGGLVQPGRSLRLSCAASGFTFDDYTMHWVRQGPGKGLEWVSDIGWNSNSIGYADSVKGRFTISRDNAKNSLYLQMNSLRPEDTALYFCVKDKSGYGKFFIGLDVWGQGTMVTVSS
VL: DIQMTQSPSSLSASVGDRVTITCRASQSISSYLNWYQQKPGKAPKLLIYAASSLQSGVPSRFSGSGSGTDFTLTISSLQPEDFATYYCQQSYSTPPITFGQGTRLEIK
notes: Monovalent 1-arm: second Fab removed, only the Fc portion (CH2-CH3) expressed; human IgG1 Fc; tied by numerical identifier; also called H1H7242B
B4: H1H7241P (monovalent 1-arm) (antibody, human IgG1, V domains shown)
VH: B3 VH with D30A, S57T, T69A, F95Y, F107Q, I108Y, M118T
VL: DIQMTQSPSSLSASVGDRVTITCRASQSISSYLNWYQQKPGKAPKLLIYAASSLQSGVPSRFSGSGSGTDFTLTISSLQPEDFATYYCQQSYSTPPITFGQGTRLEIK
notes: Monovalent 1-arm: second Fab removed, only the Fc portion (CH2-CH3) expressed; human IgG1 Fc; tied by numerical identifier; also called H1H7241B
B5: H1H7250P (monovalent 1-arm) (antibody, human IgG1, V domains shown)
VH: B3 VH with E1Q, S57T, I58K
VL: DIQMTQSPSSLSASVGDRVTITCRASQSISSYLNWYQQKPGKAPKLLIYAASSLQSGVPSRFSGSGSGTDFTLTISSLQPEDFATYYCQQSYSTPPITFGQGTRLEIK
notes: Monovalent 1-arm: second Fab removed, only the Fc portion (CH2-CH3) expressed; human IgG1 Fc; tied by numerical identifier; also called H1H7250B
B6: H1H7251P (monovalent 1-arm) (antibody, human IgG1, V domains shown)
VH: EVQLVESGGGLVQPGRSLRLSCAASGFTFADYTMHWVRQGPGTGLEWVSDIGWSGGSLGYADSVKGRFTISRDNAKNSLYLEMNNLRPEDTALYYCVKDKSGYGKFQYGLDVWGQGTTVTVSS
VL: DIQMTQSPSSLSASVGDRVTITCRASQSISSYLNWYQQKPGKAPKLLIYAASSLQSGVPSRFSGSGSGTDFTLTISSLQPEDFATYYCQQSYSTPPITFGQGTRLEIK
notes: Monovalent 1-arm: second Fab removed, only the Fc portion (CH2-CH3) expressed; human IgG1 Fc; tied by numerical identifier; also called H1H7251B
B7: H1H7258P (monovalent 1-arm) (antibody, human IgG1, V domains shown)
VH: B3 VH with E1Q, S57T, K76R, F95Y, F107Q, I108Y, M118T
VL: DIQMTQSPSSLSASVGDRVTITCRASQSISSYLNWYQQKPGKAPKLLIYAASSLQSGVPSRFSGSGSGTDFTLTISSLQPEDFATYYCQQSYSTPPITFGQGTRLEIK
notes: Monovalent 1-arm: second Fab removed, only the Fc portion (CH2-CH3) expressed; human IgG1 Fc; tied by numerical identifier; also called H1H7258B
B8: H1H7254P (monovalent 1-arm) (antibody, human IgG1, V domains shown)
VH: B3 VH with L11V, T28K, D31G, S57T
VL: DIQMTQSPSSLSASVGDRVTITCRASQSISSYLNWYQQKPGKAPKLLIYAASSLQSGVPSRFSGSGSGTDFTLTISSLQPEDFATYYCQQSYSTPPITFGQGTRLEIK
notes: Monovalent 1-arm: second Fab removed, only the Fc portion (CH2-CH3) expressed; human IgG1 Fc; tied by numerical identifier; also called H1H7254B
B9: H1H7223P (monovalent 1-arm) (antibody, human IgG1, V domains shown)
VH: QVQLVESGGGLVQPGRSLRLSCAASGFTFADYTMHWVRQAPGKGLEWVSDISWNSGSMGYADSVKGRFTISRDNAKKSLYLQMNSLRTEDTALYYCAKDGSGYGKYFFYAMDVWGQGTTVTVSS
VL: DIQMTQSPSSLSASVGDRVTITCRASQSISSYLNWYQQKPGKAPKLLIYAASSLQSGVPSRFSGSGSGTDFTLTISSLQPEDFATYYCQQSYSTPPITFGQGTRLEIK
notes: Monovalent 1-arm: second Fab removed, only the Fc portion (CH2-CH3) expressed; human IgG1 Fc; tied by numerical identifier; also called H1H7223B
B10: H1H7203P (monovalent 1-arm) (antibody, human IgG1, V domains shown)
VH: B9 VH with Q1E, E6Q, A40T, D50G, M58K, G59D, K77N, D99Y, K105R
VL: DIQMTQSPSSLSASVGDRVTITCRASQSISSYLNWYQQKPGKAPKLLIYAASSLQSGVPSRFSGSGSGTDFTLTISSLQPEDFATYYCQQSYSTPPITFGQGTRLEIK
notes: Monovalent 1-arm: second Fab removed, only the Fc portion (CH2-CH3) expressed; human IgG1 Fc; tied by numerical identifier; also called H1H7203B
B11: H1H7226P (monovalent 1-arm) (antibody, human IgG1, V domains shown)
VH: B9 VH with Q1E, E6Q, A30S, A40G, M58K, A61T, T88A, A97V, F107H, T119L
VL: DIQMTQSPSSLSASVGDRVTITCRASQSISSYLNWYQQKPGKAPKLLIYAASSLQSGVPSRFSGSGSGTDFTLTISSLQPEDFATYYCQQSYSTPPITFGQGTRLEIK
notes: Monovalent 1-arm: second Fab removed, only the Fc portion (CH2-CH3) expressed; human IgG1 Fc; tied by numerical identifier; also called H1H7226B
B12: H1H7232P (monovalent 1-arm) (antibody, human IgG1, V domains shown)
VH: EVQLVESGGGLVHPGRSLRLSCAASGFTFDDYTMHWVRQAPGKGLEWVSDISWNSGSRGYADSVKGRFTISRDNAENSLYLQMNSLRAEDTALYYCAKDKSGYGHYYYYAMDVWGQGTTVTVSS
VL: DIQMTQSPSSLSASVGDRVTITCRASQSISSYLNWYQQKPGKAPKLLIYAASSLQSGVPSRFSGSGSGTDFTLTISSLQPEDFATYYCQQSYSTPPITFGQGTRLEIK
notes: Monovalent 1-arm: second Fab removed, only the Fc portion (CH2-CH3) expressed; human IgG1 Fc; tied by numerical identifier; also called H1H7232B
B13: H1H7211P (monovalent 1-arm) (antibody, human IgG1, V domains shown)
VH: EVQLVESGGGLVHPGRSLRLSCTASGFKFADYTMHWVRQAPGKGLEWVSDISWNSGSKGYADSVKGRFTISRDNDKNSLYLQMNSLRGEDTALYYCAKDGSGYGRFHFYAIDVWGQGTTVTVSS
VL: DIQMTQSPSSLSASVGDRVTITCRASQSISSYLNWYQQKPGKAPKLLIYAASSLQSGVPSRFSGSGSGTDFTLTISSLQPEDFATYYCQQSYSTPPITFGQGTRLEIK
notes: Monovalent 1-arm: second Fab removed, only the Fc portion (CH2-CH3) expressed; human IgG1 Fc; tied by numerical identifier; also called H1H7211B
B14: H1H7194P (monovalent 1-arm) (antibody, human IgG1, V domains shown)
VH: EVQLVESGGGLVQPGRSLRLSCAASGFTFGDYTMHWVRQAPGKGLEWVSDISWNSGSKDYADSVKGRFTISRDNAKNSLYLQMNSLRTEDTAFYYCAKDSRGYGLYYHLGLDVWGQGTTVTVSS
VL: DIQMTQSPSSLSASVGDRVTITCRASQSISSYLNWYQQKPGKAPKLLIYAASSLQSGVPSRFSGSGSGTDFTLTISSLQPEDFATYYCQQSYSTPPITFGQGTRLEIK
notes: Monovalent 1-arm: second Fab removed, only the Fc portion (CH2-CH3) expressed; human IgG1 Fc; tied by numerical identifier; also called H1H7194B
B15: H1H7195P (monovalent 1-arm) (antibody, human IgG1, V domains shown)
VH: B14 VH with G30A, K58I, D59A, L105H, Y107K, H108Y
VL: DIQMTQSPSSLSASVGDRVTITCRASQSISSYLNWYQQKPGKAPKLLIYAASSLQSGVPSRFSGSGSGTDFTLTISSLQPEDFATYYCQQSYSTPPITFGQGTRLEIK
notes: Monovalent 1-arm: second Fab removed, only the Fc portion (CH2-CH3) expressed; human IgG1 Fc; tied by numerical identifier; also called H1H7195B
B16: H1H7196P (monovalent 1-arm) (antibody, human IgG1, V domains shown)
VH: EVQLVESGGGMVQPGRSLRLSCAASGFPFNDYTMHWVRQVPGRGLEWVSDISWNSGSKGYADSVKGRFIISRDNAKNSLYLQMNSLRVEDTALYYCVKDGSGYGRFHYYAMDVWGQGTTVTVSS
VL: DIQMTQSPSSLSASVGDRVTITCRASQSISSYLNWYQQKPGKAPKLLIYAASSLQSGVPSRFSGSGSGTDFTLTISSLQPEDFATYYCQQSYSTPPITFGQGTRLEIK
notes: Monovalent 1-arm: second Fab removed, only the Fc portion (CH2-CH3) expressed; human IgG1 Fc; tied by numerical identifier; also called H1H7196B
B17: H1H7233P (monovalent 1-arm) (antibody, human IgG1, V domains shown)
VH: EVQLVESGGGLVQPGGSLRLSCEASGFTFADYTLHWVRQAPGKGLEWVSDISWNSGTRGYADSVRGRFTISRDNAKKSLYLQMNSLRSEDTALYYCVKDGSGYGRYNFYAMDVWGQGTTVTVSS
VL: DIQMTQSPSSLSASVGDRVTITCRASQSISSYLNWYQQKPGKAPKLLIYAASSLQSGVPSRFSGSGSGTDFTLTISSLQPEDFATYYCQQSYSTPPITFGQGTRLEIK
notes: Monovalent 1-arm: second Fab removed, only the Fc portion (CH2-CH3) expressed; human IgG1 Fc; tied by numerical identifier; also called H1H7233B

Columns and labels:
[1] = target: T1, Soluble heterodimeric CD3 protein (hCD3-epsilon/hCD3-delta) with either a human Fc tag (hFcΔAdp/hFc) or a … (human, UniProt P07766 23-126; P04234 22-105); assay: SPR Biacore 25C antigen-capture, 1-arm
T1 construct: also called hCD3ε/δ; not shown: Fc tag: human (hFcΔAdp/hFc)
T1 sequence (P07766 23-126 limits assumed, stated change not applied, chain 1 of 2): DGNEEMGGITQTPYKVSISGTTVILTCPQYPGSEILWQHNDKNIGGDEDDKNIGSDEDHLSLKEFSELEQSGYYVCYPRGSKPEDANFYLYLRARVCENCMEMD
T1 sequence (P04234 22-105 limits assumed, stated change not applied, chain 2 of 2): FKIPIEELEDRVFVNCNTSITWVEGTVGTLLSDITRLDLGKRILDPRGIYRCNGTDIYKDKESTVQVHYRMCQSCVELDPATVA
Description: In the antigen-capture format, heterodimeric CD3 protein was captured using a rabbit anti-mouse Fc or mouse anti-human Fc and the respective antibodies were injected over the captured antigen.
(§1) Kinetic association (kₐ) and dissociation (kd) rate constants were determined by processing and fitting the data to a 1:1 binding model using Scrubber 2.0 curve fitting software. Binding dissociation equilibrium constants (KD) and dissociative half-lives (t₁₁₂) were calculated from the kinetic rate constants as: KD (M)=kd/kₐ; and t_{1/2} (min)=(ln 2/(60*kd). NT=not tested; NB=no binding observed.

[2] = target: T1, Soluble heterodimeric CD3 protein …; assay: SPR Biacore 25C antibody-capture, 1-arm
Description: Soluble heterodimeric CD3 protein (hCD3-epsilon/hCD3-delta; SEQ ID NOs:1652/1653) with either a human Fc tag (hFcΔAdp/hFc; SEQ ID NOs:1683/1684) or a mouse Fc tag (mFcΔAdp/mFc; SEQ ID NOs:1685/1686) was injected over the antibody captured surface and the binding response was recorded. Heterodimeric CD3 protein was purified using the method described in Davis et al. (US2010/0331527).
as §1

Binder | Kd [1] [nM] | T½ [1] [min] | koff [1] [s⁻¹] | kon [1] [M⁻¹ s⁻¹] | Kd [2] [nM] | T½ [2] [min] | koff [2] [s⁻¹] | kon [2] [M⁻¹ s⁻¹]
B1 | 2.12 | 32 | 0.000365 | 173000 | 25.3 | 32 | 0.000362 | 14300
B2 | 24.9 | 2 | 0.00689 | 277000 | 243 | 2 | 0.00624 | 25700
B3 | 2.63 | 11 | 0.00101 | 383000 | 30.9 | 17 | 0.000664 | 21500
B4 | 1.26 | 49 | 0.000236 | 187000 | 22 | 39 | 0.000295 | 13400
B5 | 0.82 | 61 | 0.000189 | 231000 | 10.5 | 47 | 0.000247 | 23400
B6 | 2.67 | 10 | 0.00119 | 447000 | 41.7 | 11 | 0.00107 | 25600
B7 | 2.18 | 40 | 0.00029 | 133000 | 24 | 38 | 0.000302 | 12600
B8 | 0.762 | 35 | 0.00033 | 433000 | 14.9 | 30 | 0.000388 | 26000
B9 | 1.53 | 40 | 0.000286 | 187000 | 19.2 | 38 | 0.000307 | 16000
B10 | 0.498 | 48 | 0.000238 | 479000 | 18.3 | 43 | 0.000267 | 14600
B11 | 0.565 | 49 | 0.000236 | 418000 | 27.2 | 33 | 0.000355 | 13000
B12 | 10 | 8 | 0.00149 | 149000 | 220 | 7 | 0.00177 | 8030
B13 | 0.279 | 120 | 9.61e-05 | 345000 | 11.3 | 73 | 0.000159 | 14100
B14 | 0.241 | 137 | 8.43e-05 | 350000 | 13 | 76 | 0.000151 | 11600
B15 | 0.126 | 162 | 7.14e-05 | 566000 | 3.16 | 117 | 9.89e-05 | 31300
B16 | 2.49 | 25 | 0.000461 | 185000 | 41.3 | 26 | 0.000443 | 10700
B17 | 1.27 | 57 | 0.000204 | 161000 | 24.2 | 43 | 0.000269 | 11100
